# Assay results from patent publication US12319925B2, “Methods and compositions for genomic integration” (Myeloid Therapeutics, Inc., priority 2021, dated 2025).
# B1: LINE-1plasmid-cd5_fcr-pi3k_t2a_GFPintron: LINE-1 plasmid with 3.7 kb cargo: CD5 binding receptor, T2A, intron-interrupted GFP (SEQ ID NO: 40) (nucleic acid)
# DNA: CGGCCGCGGGGGGAGGAGCCAAGATGGCCGAATAGGAACAGCTCCGGTCTACAGCTCCCAGCGTGAGCGACGCAGAAGACGGTGATTTCTGCATTTCCATCTGAGGTACCGGGTTCATCTCACTAGGGAGTGCCAGACAGTGGGCGCAGGCCAGTGTGTGTGCGCACCGTGCGCGAGCCGAAGCAGGGCGAGGCATTGCCTCACCTGGGAAGCGCAAGGGGTCAGGGAGTTCCCTTTCCGAGTCAAAGAAAGGGGTGACGGACGCACCTGGAAAATCGGGTCACTCCCACCCGAATATTGCGCTTTTCAGACCGGCTTAAGAAACGGCGCACCACGAGACTATATCCCACACCTGGCTCGGAGGGTCCTACGCCCACGGAATCTCGCTGATTGCTAGCACAGCAGTCTGAGATCAAACTGCAAGGCGGCAACGAGGCTGGGGGAGGGGCGCCCGCCATTGCCCAGGCTTGCTTAGGTAAACAAAGCAGCAGGGAAGCTCGAACTGGGTGGAGCCCACCACAGCTCAAGGAGGCCTGCCTGCCTCTGTAGGCTCCACCTCTGGGGGCAGGGCACAGACAAACAAAAAGACAGCAGTAACCTCTGCAGACTTAAGTGTCCCTGTCTGACAGCTTTGAAGAGAGCAGTGGTTCTCCCAGCACGCAGCTGGAGATCTGAGAACGGGCAGACTGCCTCCTCAAGTGGGTCCCTGACCCCTGACCCCCGAGCAGCCTAACTGGGAGGCACCCCCCAGCAGGGGCACACTGACACCTCACACGGCAGGGTATTCCAACAGACCTGCAGCTGAGGGTCCTGTCTGTTAGAAGGAAAACTAACAACCAGAAAGGACATCTACACCGAAAACCCATCTGTACATCACCATCATCAAAGACCAAAAGTAGATAAAACCACAAAGATGGGGAAAAAACAGAACAGAAAAACTGGAAACTCTAAAACGCAGAGCGCCTCTCCTCCTCCAAAGGAACGCAGTTCCTCACCAGCAACAGAACAAAGCTGGATGGAGAATGATTTTGATGAGCTGAGAGAAGAAGGCTTCAGACGATCAAATTACTCTGAGCTACGGGAGGACATTCAAACCAAAGGCAAAGAAGTTGAAAACTTTGAAAAAAATTTAGAAGAATGTATAACTAGAATAACCAATACAGAGAAGTGCTTAAAGGAGCTGATGGAGCTGAAAACCAAGGCTCGAGAACTACGTGAAGAATGCAGAAGCCTCAGGAGCCGATGCGATCAACTGGAAGAAAGGGTATCAGCAATGGAAGATGAAATGAATGAAATGAAGCGAGAAGGGAAGTTTAGAGAAAAAAGAATAAAAAGAAATGAGCAAAGCCTCCAAGAAATATGGGACTATGTGAAAAGACCAAATCTACGTCTGATTGGTGTACCTGA
# B2: LINE-1 plasmid GFP: plasmid with LINE-1 ORF1, ORF2 and CMV promoter driven split GFP gene in reverse orientation in the 3′UTR (SEQ ID NO: 37) (nucleic acid)
# DNA: CGGCCGCGGGGGGAGGAGCCAAGATGGCCGAATAGGAACAGCTCCGGTCTACAGCTCCCAGCGTGAGCGACGCAGAAGACGGTGATTTCTGCATTTCCATCTGAGGTACCGGGTTCATCTCACTAGGGAGTGCCAGACAGTGGGCGCAGGCCAGTGTGTGTGCGCACCGTGCGCGAGCCGAAGCAGGGCGAGGCATTGCCTCACCTGGGAAGCGCAAGGGGTCAGGGAGTTCCCTTTCCGAGTCAAAGAAAGGGGTGACGGACGCACCTGGAAAATCGGGTCACTCCCACCCGAATATTGCGCTTTTCAGACCGGCTTAAGAAACGGCGCACCACGAGACTATATCCCACACCTGGCTCGGAGGGTCCTACGCCCACGGAATCTCGCTGATTGCTAGCACAGCAGTCTGAGATCAAACTGCAAGGCGGCAACGAGGCTGGGGGAGGGGCGCCCGCCATTGCCCAGGCTTGCTTAGGTAAACAAAGCAGCAGGGAAGCTCGAACTGGGTGGAGCCCACCACAGCTCAAGGAGGCCTGCCTGCCTCTGTAGGCTCCACCTCTGGGGGCAGGGCACAGACAAACAAAAAGACAGCAGTAACCTCTGCAGACTTAAGTGTCCCTGTCTGACAGCTTTGAAGAGAGCAGTGGTTCTCCCAGCACGCAGCTGGAGATCTGAGAACGGGCAGACTGCCTCCTCAAGTGGGTCCCTGACCCCTGACCCCCGAGCAGCCTAACTGGGAGGCACCCCCCAGCAGGGGCACACTGACACCTCACACGGCAGGGTATTCCAACAGACCTGCAGCTGAGGGTCCTGTCTGTTAGAAGGAAAACTAACAACCAGAAAGGACATCTACACCGAAAACCCATCTGTACATCACCATCATCAAAGACCAAAAGTAGATAAAACCACAAAGATGGGGAAAAAACAGAACAGAAAAACTGGAAACTCTAAAACGCAGAGCGCCTCTCCTCCTCCAAAGGAACGCAGTTCCTCACCAGCAACAGAACAAAGCTGGATGGAGAATGATTTTGATGAGCTGAGAGAAGAAGGCTTCAGACGATCAAATTACTCTGAGCTACGGGAGGACATTCAAACCAAAGGCAAAGAAGTTGAAAACTTTGAAAAAAATTTAGAAGAATGTATAACTAGAATAACCAATACAGAGAAGTGCTTAAAGGAGCTGATGGAGCTGAAAACCAAGGCTCGAGAACTACGTGAAGAATGCAGAAGCCTCAGGAGCCGATGCGATCAACTGGAAGAAAGGGTATCAGCAATGGAAGATGAAATGAATGAAATGAAGCGAGAAGGGAAGTTTAGAGAAAAAAGAATAAAAAGAAATGAGCAAAGCCTCCAAGAAATATGGGACTATGTGAAAAGACCAAATCTACGTCTGATTGGTGTACCTGAAAGTGATGTGGAGAATGGAACCAA
# What was measured:
# [1] = tested on: HEK293T cells; assay: Expression of CD5 binder (ATAK) receptor and GFP by flow cytometry with labeled CD5 after LINE-1 plasmid transfection; assay type: cell-based, human; conditions: 3.7 kb cargo
# Excerpt: HEK 293 cells were transfected with a plasmid having the LINE-1 elements, with a 3 kb cargo sequence encoding recombinant receptor protein CD5-intron-fcr-PI3K (ATAK) that is interrupted by an intron sequence in the CD5 binding domain. The cargo is a chimeric receptor that has a CD5 binding extracellular domain, a FCRγ transmembrane domain, and an intracellular domain having a PI3-kinase recruitment domain. As in the design of the experiment above, the ATAK receptor cannot express unless it is integrated in the genome and the intron is spliced off. Following transfection in HEK293T cells, the receptor expression is detected using labeled CD5 as bait for the CD5 binding extracellular domain. Results shown in FIGS. 9B and 9C show successful integration and expression of the receptor. 36.5% cells were ATAK (CD5 binder) positive (FIG. 9C).
# In a further modification, a LINE-1 construct (LINE-1plasmid-cd5_fcr-pi3k_t2a_GFPintron) with a longer 3.7 kb cargo sequence encoding a non-interrupted recombinant receptor protein CD5-intron-fcr-PI3K and an interrupted GFP sequence with a T2A sequence between receptor and the GFP sequences (FIG. 10A). […] Exemplary fluorescence identification of GFP and fluorescent tagged CD5 binding and gating quantitation for experimental runs are shown in FIG. 10C and FIG. 10D.
# The cargo GFP gene in the previous construct was replaced with intron interrupted CD5-FcR-P13K CAR-M sequence (Morrissey et al., 2018). The CD5 binder expression was measured by flow cytometry using a Alexa647-conjugated CD5 protein such that retrotransposed cells are CD5-AF647 positive (red histogram) compared with a plasmid transfected negative control cell population (grey histogram) (FIG. 30).
# The cargo gene length was extended by adding the intron-interrupted GFP gene after the T2A sequence downstream of the CD5-FcR-PI3K CAR-M sequence (FIG. 31). The CD5 binder expression was measured by flow cytometry using a Alexa647-conjugated CD5 protein. […]
# [2] = tested on: Jurkat cells; assay: GFP expression after delivery of LINE-1 plasmid or mRNA with CMV-GFP antisense reporter; assay type: cell-based; conditions: 4 days post electroporation, relative to mock, FIG. 17B
# Procedure: To test retrotransposition in immune cells, LINE-1 plasmid and mRNA were tested with the CMV-GFP antisense reporter cargo by electroporating into Jurkat cells, which is a T cell lymphoma line (FIG. 17A-FIG. 17B). Mock set were electroporated with a plasmid with no GFP sequence. Fold increase is reported relative to mock transfected cells.
molecule,measurement,setting,value
B1,cells express both CAR-M and GFP proteins,"[1]; flow cytometry signal in Q2, Alexa647-conjugated CD5 protein, FIG. 31",10.8%
same,increase of the ATAK receptor and GFP double-positive cells,"[1]; normalized against mock-transfected cells, FIG. 10B",greater than 10 fold
B2,GFP expression,[2],successful GFP expression
